# Laboratory results from patent publication US20220127354A1 (Amgen, published 2022).
# Residue numbers refer to the chain shown, from its start. Names and notes keep the numbering of the source.
# T1: ckCDH19(1-43)::FLAG::ckCDH19(44-141)::huCDH19(142-249)::ckCDH19(250-776) (construct L, Hu EC2) (human/chicken chimera)
# T1 construct: leader (1-43 of the entry) left out
# T1 chain: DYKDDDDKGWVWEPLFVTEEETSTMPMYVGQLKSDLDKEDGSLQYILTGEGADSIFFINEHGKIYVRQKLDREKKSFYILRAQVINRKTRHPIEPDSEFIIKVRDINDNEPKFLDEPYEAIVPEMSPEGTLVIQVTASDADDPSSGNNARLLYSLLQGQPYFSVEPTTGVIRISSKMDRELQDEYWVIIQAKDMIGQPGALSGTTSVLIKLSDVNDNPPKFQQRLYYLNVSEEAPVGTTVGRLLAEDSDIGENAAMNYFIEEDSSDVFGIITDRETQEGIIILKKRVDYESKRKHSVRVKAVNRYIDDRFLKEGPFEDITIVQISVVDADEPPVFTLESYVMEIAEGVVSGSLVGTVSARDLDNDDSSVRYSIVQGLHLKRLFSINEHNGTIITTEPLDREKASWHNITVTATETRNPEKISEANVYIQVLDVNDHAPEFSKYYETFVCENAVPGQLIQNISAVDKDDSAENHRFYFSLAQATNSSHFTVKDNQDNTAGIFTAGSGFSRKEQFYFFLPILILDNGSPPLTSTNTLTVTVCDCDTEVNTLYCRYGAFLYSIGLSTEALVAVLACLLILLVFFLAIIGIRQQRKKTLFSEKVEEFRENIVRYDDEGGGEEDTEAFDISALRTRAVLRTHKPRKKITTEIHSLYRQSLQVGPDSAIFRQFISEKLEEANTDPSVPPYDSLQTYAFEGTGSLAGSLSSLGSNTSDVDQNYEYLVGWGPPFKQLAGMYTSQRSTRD
# T2: ckCDH19(1-43)::FLAG::ckCDH19(44-776) (construct J, Ck EC1-5) (chicken)
# T2 construct: the entry holds leader (1-43), FLAG and ckCDH19(44-776); leader left out; also called chicken Cadherin19
# T2 chain: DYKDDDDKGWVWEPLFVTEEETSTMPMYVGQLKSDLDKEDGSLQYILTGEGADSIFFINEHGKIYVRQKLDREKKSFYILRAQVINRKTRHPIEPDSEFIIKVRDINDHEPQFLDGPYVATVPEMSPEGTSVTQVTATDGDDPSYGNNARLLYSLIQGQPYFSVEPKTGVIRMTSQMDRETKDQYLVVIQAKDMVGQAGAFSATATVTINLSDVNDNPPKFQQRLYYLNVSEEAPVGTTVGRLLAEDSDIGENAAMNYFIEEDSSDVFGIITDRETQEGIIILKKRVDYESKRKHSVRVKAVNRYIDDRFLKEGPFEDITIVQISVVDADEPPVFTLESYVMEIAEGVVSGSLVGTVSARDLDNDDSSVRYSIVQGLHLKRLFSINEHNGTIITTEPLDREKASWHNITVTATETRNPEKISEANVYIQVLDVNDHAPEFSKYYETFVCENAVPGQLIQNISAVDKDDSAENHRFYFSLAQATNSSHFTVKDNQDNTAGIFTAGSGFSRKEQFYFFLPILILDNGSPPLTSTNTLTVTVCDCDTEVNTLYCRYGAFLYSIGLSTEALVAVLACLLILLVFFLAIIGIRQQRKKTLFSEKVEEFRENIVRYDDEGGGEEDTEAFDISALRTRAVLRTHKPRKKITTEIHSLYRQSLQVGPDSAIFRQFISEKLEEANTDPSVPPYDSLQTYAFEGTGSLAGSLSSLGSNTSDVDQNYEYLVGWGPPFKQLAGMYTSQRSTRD
# T3: ckCDH19(1-43)::FLAG::ckCDH19(44-468)::huCDH19(464-772) (construct O, Hu EC5) (human/chicken chimera)
# T3 construct: leader (1-43 of the entry) left out
# T3 chain: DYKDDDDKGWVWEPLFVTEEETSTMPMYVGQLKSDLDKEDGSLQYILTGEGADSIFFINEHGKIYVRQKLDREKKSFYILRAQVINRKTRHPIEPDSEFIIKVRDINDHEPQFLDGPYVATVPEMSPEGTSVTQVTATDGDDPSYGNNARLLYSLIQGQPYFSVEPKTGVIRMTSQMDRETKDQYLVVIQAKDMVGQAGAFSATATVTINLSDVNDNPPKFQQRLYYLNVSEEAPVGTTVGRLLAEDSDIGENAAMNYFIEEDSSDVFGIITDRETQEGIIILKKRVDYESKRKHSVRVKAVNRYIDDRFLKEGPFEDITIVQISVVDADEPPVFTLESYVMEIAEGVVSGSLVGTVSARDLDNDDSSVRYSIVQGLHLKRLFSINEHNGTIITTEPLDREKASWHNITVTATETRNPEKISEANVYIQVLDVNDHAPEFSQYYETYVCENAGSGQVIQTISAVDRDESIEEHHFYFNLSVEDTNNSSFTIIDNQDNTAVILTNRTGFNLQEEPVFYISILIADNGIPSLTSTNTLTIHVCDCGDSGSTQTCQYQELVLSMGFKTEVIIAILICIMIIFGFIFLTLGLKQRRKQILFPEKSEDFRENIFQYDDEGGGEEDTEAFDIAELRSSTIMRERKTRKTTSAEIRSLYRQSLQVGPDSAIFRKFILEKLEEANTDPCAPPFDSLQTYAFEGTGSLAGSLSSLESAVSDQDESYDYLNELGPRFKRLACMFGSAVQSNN
# B1: anti-CDH19 antibody 2G6 (Ab ID 13588) (antibody, human IgG1, lambda, V domains shown)
# VH: QVQLVESGGGVVQPGRSLRLSCAASGFTFSSYGMHWVRQAPGKGLEWVAFIWYDGSNKYYADSVKDRFTISRDNSKNTLYLQMKSLRAEDTAVYYCARRAGIIGTIGYYYGMDVWGQGTTVTVSS
# VL: SYELTQPPSVSVSPGQTASITCSGDRLGEKYTCWYQQRPGQSPLLVIYQDTKRPSGIPERFSGSNSGNTATLTISGTQAMDEADYYCQAWDSSTVVFGGGTKLTVLG
# notes: Bin 4
# B2: hu anti-<huCDH19> 23A10.3 (1-474)(L92Q) VH::huIgG1z + 23A10.3 (1-231)(C42S) VL::huLLC-C2 (Ab ID 14077) (antibody, V domains shown)
# VH: B1 VH with S31R, M34I, F50V, D66G, K84N, T91S, I103P, I106T
# VL: B1 VL with T32V, C33S, R38K, L44I, T51N, R53W
# notes: Engineered variant of 23A10; the entries already carry the changes; Bin 4
# B3: hu anti-<huCDH19> 26D1.1 (Ab ID 13882) (antibody, human IgG1, lambda, V domains shown)
# VH: QVQLVQSGAEVKKPGASVKVSCKASRYTFTSYYMSWVRQAPGQGLEWMGIIHPSGGDTTYAQKFQGRVTMTGDTSTSTVYMELSSLRSEDTAVYYCARGGIKLWLHFDYWGQGTLVTVSS
# VL: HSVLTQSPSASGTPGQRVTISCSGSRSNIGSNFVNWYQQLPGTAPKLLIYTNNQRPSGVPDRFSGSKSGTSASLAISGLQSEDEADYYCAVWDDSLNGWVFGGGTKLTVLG
# notes: huIgG1z / huLLC-C2; Bin 2
# B4: hu anti-<huCDH19> 25F8.1 (1-469)(F90Y) VH::huIgG1z + 25F8.1 (1-235)(K45Q,S102A,D111E) VL::huLLC-C2 (Ab ID 14096) (antibody, V domains shown)
# VH: B3 VH with R26G, M34I, S35H, H52N, D57S, T59R, G72R, K102Q
# VL: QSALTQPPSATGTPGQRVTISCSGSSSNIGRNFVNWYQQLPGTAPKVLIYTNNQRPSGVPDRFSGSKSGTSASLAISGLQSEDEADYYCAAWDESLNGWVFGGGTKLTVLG
# notes: Engineered variant of 25F8; the entries already carry the changes; Bin 2
# B5: hu anti-<huCDH19> 4B10 (Ab ID 13590) (antibody, V domains shown)
# VH: QVQLVESGGGVVQPGRSLRLSCAASGFTFSSYDMHWVRQAPGKGLEWVAVISYDGTNEYYADSVKGRFTISRDTSKNTLYLQMNSLRAEDTAVYYCARERYFDWSFDYWGQGTLVSVSS
# VL: EIVLTQSPGTLSLSPGERATLSCRASQSVSNTYLAWYHQRPGQAPRLLIYGASSRATGIPDRFSGSGSGTDFALTISSLEPEDFAVYYCQQYSNSWTFGQGTKVEIKR
# notes: huIgG1z / huKLC; Bin 4
# B6: anti-CDH19 antibody 4A2 (Ab ID 13592) (antibody, human IgG1, kappa, V domains shown)
# VH: QVQLQESGPGLVKPSQTLSLTCTVSGGSISSSGYYWSWIRQHPGKGLEWIGYIYYTGSAYYNPSLKSRVTISVDTSKNQFSLKLSSVTAADTAVYYCARDGSSGWYFQYWGQGTLVTVSS
# VL: EIVLTQSPGTLSLSPGERATLSCRASRNISSSYLAWYQQKPGQAPRLLIYGPSSRATGIPDRFSGSGSGTDFTLTISRLEPEDFTVYYCQQYGSSFTFGPGTKVDIKR
# notes: Bin 4
# B7: hu anti-<huCDH19> 4A9 (Ab ID 13589) (antibody, human IgG1, lambda, V domains shown)
# VH: QVQLQESGPGLVKPSETLSLTCTVSGGSISGYYWSWIRQPPGKGLEWFAYFSYSGSTNYNPSLKSRVTLSVDTSKNQFSLKLSSVTAADTAVYYCARNWAFHFDFWGQGTLVTVSS
# VL: QSVLTQPPSVSGAPGQRVTISCTGSSSNIGTGYAVHWYQQFPGTAPKLLIYGNNNRPSGVPDRFSGSKSGTSASLAITGLQAEDEADYYCQSYDSRLSGWVFGGGTKLTVLG
# notes: huIgG1z / huLLC-C1; Bin 1
# Legend:
# Assay in all cases: flow cytometry, transfected 293T cells, 2 mM CaCl2;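 further: binding of Alexa647-labelled anti-CDH19 antibodies to cells expressing human/chicken CDH19 chimeras, read as cell-bound fluorescence, with mock-transfected cells as controls, n.d. meaning not determined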
# [1] = molecular target: T1, ckCDH19(1-43)::FLAG::ckCDH19(44-141)::hu …
# Description: (§1) The experiment included assaying a subset of anti-CDH19 antibodies against chicken Cadherin19 to determine suitability for binning on these human/chicken chimeras.
# (§2) The following binding assay was completed in presence of 2 mM CaCl₂). […] Cells were then washed one time and the amount of cell associated Alexa647-labelled Ab was quantitated by flow cytometry. The experiments included mock transfected controls.
# [2] = molecular target: T2, ckCDH19(1-43)::FLAG::ckCDH19(44-776) …
# Description: as §1, §2
# [3] = molecular target: T3, ckCDH19(1-43)::FLAG::ckCDH19(44-468)::hu …
# Description: as §1, §2
# [4] = molecular target: T4, huCDH19(1-43)::FLAG::hu(44-141)::ckCDH19(142-776) (construct K, Hu EC1) (human/chicken chimera)
# T4 construct: leader (1-43 of the entry) left out; also called huCDH19(44-141)::ckCDH19(142-776)
# Description: as §1, §2
# [5] = molecular target: T5, ckCDH19(1-43)::FLAG::ckCDH19(44-249)::huCDH19(250-364)::ckCDH19(365-776) (construct M, Hu EC3) (human/chicken chimera)
# T5 construct: leader (1-43 of the entry) left out
# Description: as §1, §2
# [6] = molecular target: huCDH19(44-772) with Flag tag (construct A, Hu EC1-5) (human, UniProt Q9H159 44-772)
# Description: as §1, §2
Binder,binding result [1],binding result [2],binding result [3],binding result [4],binding result [5],binding result [6]
B1,no binding (tested: 5 ug/ml),no binding (tested: 5 ug/ml),no binding (tested: 5 ug/ml),no binding (tested: 5 ug/ml),binds,binds
B2,no binding (tested: 5 ug/ml),no binding (tested: 5 ug/ml),no binding (tested: 5 ug/ml),no binding (tested: 5 ug/ml),binds,binds
B3,no binding (tested: 5 ug/ml),no binding (tested: 5 ug/ml),no binding (tested: 5 ug/ml),binds,no binding (tested: 5 ug/ml),binds
B4,no binding (tested: 5 ug/ml),no binding (tested: 5 ug/ml),no binding (tested: 5 ug/ml),binds,no binding (tested: 5 ug/ml),binds
B5,no binding (tested: 5 ug/ml),no binding (tested: 5 ug/ml),no binding (tested: 5 ug/ml),no binding (tested: 5 ug/ml),binds,binds
B6,no binding (tested: 5 ug/ml),no binding (tested: 5 ug/ml),no binding (tested: 5 ug/ml),no binding (tested: 5 ug/ml),–,–
B7,no binding (tested: 5 ug/ml),no binding (tested: 5 ug/ml),no binding (tested: 5 ug/ml),binds,no binding (tested: 5 ug/ml),binds
